In one data set the test system is MCF7. As to the kind of experiment: percentage of EdU-negative (G0-arrested) nuclei per well, 72 h; higher = more G0 arrest. The note with it: reference: sequence is the full UniProt precursor, the tested protein was the secreted form or ectodomain.
The subject of a further data set is hTERT-HMEC. The data set is described as above. To be noted: reference: sequence is the full UniProt precursor, the tested protein was the secreted form or ectodomain.
Where [1] appears, read: protein concentration 0.0225 µM.
Where [2] appears, read: protein concentration 0.0075 µM.
Setting [3] is: protein concentration 0.0219975 µM.
Setting [4] is: protein concentration 0.219975 µM.
Where [5] appears, read: protein concentration 0.0357143 µM.
Setting [6] is: protein concentration 0.357143 µM.

± gives the standard deviation of the averaged measurements.
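Further: secreted proteins added to cultured cells, EdU pulse at the end, nuclei found by Hoechst imaging, EdU status from nuclear versus surrounding ring intensity ratio, PBS as neutral control.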

Turning to “MAWMLLLILIMVHPGSCALWVSQPPEIRTLEGSSAFLPCSFNASQGRLAIGSVTWFRDEVVPGKEVRNGTPEFRGRLAPLASSRFLHDHQAELHIRDVRGHDASIYVCRVEVLGLGVGTGNGTRLVVEKEHPQLGAGTVLLLRAGFYAVSFLSVAVGSTVYYQGKCLTWKGPRRQLPAVVPAPLPPPCGSSAHLLPPVPGG”, the “percentage of EdU-negative” value in the data set on MCF7 (setting [1]) was found to be 22.75 ± 0.21%; with MCF7 (protein concentration 0.225 µM), 23.2 ± 1.3%; in the data set on hTERT-HMEC (setting [1]), 4.49 ± 0.81%; with hTERT-HMEC (protein concentration 0.225 µM), 4.92 ± 0.2%.

Regarding “MAWPLCTLLLLLATQAVALAWSPQEEDRIIEGGIYDADLNDERVQRALHFVISEYNKATEDEYYRRLLRVLRAREQIVGGVNYFFDIEVGRTICTKSQPNLDTCAFHEQPELQKKQLCSFQIYEVPWEDRMSLVNSRCQEA”, the “percentage of EdU-negative” value in the data set with MCF7 (setting [1]) was 25.7 ± 2.2%; in the data set with MCF7 (protein concentration 0.225 µM) it was 24 ± 0.52%; in the data set on hTERT-HMEC (setting [1]), 4.46 ± 0.44%; in the data set with hTERT-HMEC (protein concentration 0.225 µM), 5.26 ± 0.68%.

Take “MAWSLGSWLGGCLLVSALGMVPPPENVRMNSVNFKNILQWESPAFAKGNLTFTAQYLSYRIFQDKCMNTTLTECDFSSLSKYGDHTLRVRAEFADEHSDWVNITFCPVDDTIIGPPGMQVEVLADSLHMRFLAPKIENEYETWTMKNVYNSWTYNVQYWKNGTDEKFQITPQYDFEVLRNLEPWTTYCVQVRGFLPDRNKAGEWSEPVCEQTTHDETVPSWMVAVILMASVFMVCLALLGCFALLWCVYKKTKYAFSPRNSLPQHLKEFLGHPHHNTLLFFSFPLSDENDVFDKLSVIAEDSESGKQNPGDSCSLGTPPGQGPQS”: the “percentage of EdU-negative” value was determined as 24.3 ± 0.92% in the data set with MCF7 (protein concentration 0.034 µM), 26.5 ± 1.1% with MCF7 (protein concentration 0.34 µM), 5.95 ± 2.1% in the data set on hTERT-HMEC (protein concentration 0.034 µM) and 7.32 ± 0.51% in the data set on hTERT-HMEC (protein concentration 0.34 µM).

As to “MCGPDDRCPARWPGPGRAVKCGKGLAAARPGRVERGGAQRGGAGLELHPLLGGRTWRAARDADGCEALGTVAVPFDDDDKIVGGYTCEENSLPYQVSLNSGSHFCGGSLISEQWVVSAAHCYKTRIQVRLGEHNIKVLEGNEQFINAAKIIRHPKYNRDTLDNDIMLIKLSSPAVINARVSTISLPTTPPAAGTECLISGWGNTLSFGADYPDELKCLDAPVLTQAECKASYPGKITNSMFCVGFLEGGKDSCQRDSGGPVVCNGQLQGVVSWGHGCAWKNRPGVYTKVYNYVDWIKDTIAANS”, the “percentage of EdU-negative” value stood at 25.3 ± 0.83% in the data set on MCF7 (setting [1]), 26.6 ± 3.7% in the data set on MCF7 (protein concentration 0.225 µM), 5.21 ± 0.094% with hTERT-HMEC (setting [1]) and 7.39 ± 0.7% with hTERT-HMEC (protein concentration 0.225 µM).

On to “MCGSALAFFTAAFVCLQNDRRGPASFLWAAWVFSLVLGLGQGEDNRCASSNAASCARCLALGPECGWCVQEDFISGGSRSERCDIVSNLISKGCSVDSIEYPSVHVIIPTENEINTQVTPGEVSIQLRPGAEANFMLKVHPLKKYPVDLYYLVDVSASMHNNIEKLNSVGNDLSRKMAFFSRDFRLGFGSYVDKTVSPYISIHPERIHNQCSDYNLDCMPPHGYIHVLSLTENITEFEKAVHRQKISGNIDTPEGGFDAMLQAAVCESHIGWRKEAKRLLLVMTDQTSHLALDSKLAGIVVPNDGNCHLKNNVYVKSTTMEHPSLGQLSEKLIDNNINVIFAVQGKQFHWYKDLLPLLPGTIAGEIESKAANLNNLVVEAYQKLISEVKVQVENQVQGIYFNITAICPDGSRKPGMEGCRNVTSNDEVLFNVTVTMKKCDVTGGKNYAIIKPIGFNETAKIHIHRNCSCQCEDNRGPKGKCVDETFLDSKCFQCDENKCHFDEDQFSSESCKSHKDQPVCSGRGVCVCGKCSCHKIKLGKVYGKYCEKDDFSCPYHHGNLCAGHGECEAGRCQCFSGWEGDRCQCPSAAAQHCVNSKGQVCSGRGTCVCGRCECTDPRSIGRFCEHCPTCYTACKENWNCMQCLHPHNLSQAILDQCKTSCALMEQQHYVDQTSECFSSPSYLRIFFIIFIVTFLIGLLKVLIIRQVILQWNSNKIKSSSDYRVSASKKDKLILQSVCTRAVTYRREKPEEIKMDISKLNAHETFRCNF”, for which the “percentage of EdU-negative” value with MCF7 (setting [2]) stood at 28.2 ± 3%; in the data set with MCF7 (protein concentration 0.075 µM), 28.3 ± 2.1%; with hTERT-HMEC (setting [2]) it was 4.94 ± 0.66%; in the data set on hTERT-HMEC (protein concentration 0.075 µM) it was 6.65 ± 1.7%.

On to “MCHQQLVISWFSLVFLASPLVAIWELKKDVYVVELDWYPDAPGEMVVLTCDTPEEDGITWTLDQSSEVLGSGKTLTIQVKEFGDAGQYTCHKGGEVLSHSLLLLHKKEDGIWSTDILKDQKEPKNKTFLRCEAKNYSGRFTCWWLTTISTDLTFSVKSSRGSSDPQGVTCGAATLSAERVRGDNKEYEYSVECQEDSACPAAEESLPIEVMVDAVHKLKYENYTSSFFIRDIIKPDPPKNLQLKPLKNSRQVEVSWEYPDTWSTPHSYFSLTFCVQVQGKSKREKKDRVFTDKTSATVICRKNASISVRAQDRYYSSSWSEWASVPCS”, for which the “percentage of EdU-negative” value with MCF7 (setting [3]) was 27.4 ± 2.1%; in the data set on MCF7 (setting [4]), 27.5 ± 0.78%; with hTERT-HMEC (setting [3]) it was 5.23 ± 1.3%; in the data set on hTERT-HMEC (setting [4]), 7.74 ± 1.1%.

“MCLSHLENMPLSHSRTQGAQRSSWKLWLFCSIVMLLFLCSFSWLIFIFLQLETAKEPCMAKFGPLPSKWQMASSEPPCVNKVSDWKLEILQNGLYLIYGQVAPNANYNDVAPFEVRLYKNKDMIQTLTNKSKIQNVGGTYELHVGDTIDLIFNSEHQVLKNNTYWGIILLANPQFIS [Q9UNG2]”: the “percentage of EdU-negative” value with MCF7 (setting [5]) turned out to be 24.5 ± 2.7%; in the data set on MCF7 (setting [6]), 27 ± 1.1%; with hTERT-HMEC (setting [5]) it was 5.8 ± 0.82%; in the data set on hTERT-HMEC (setting [6]), 7.64 ± 0.14%.

The values above are taken from the supplement of paper PMC11316812.
